Read-outs that look alike come from different tables or passages of the source.
Experiments:
[1] = target: T1, Zea mays asparagine synthetase Zm AsnS4 (SEQ ID NO: 51, encoded by SEQ ID NO: 50) (Zea mays, UniProt B5U8J9); assay: Kinetics of recombinant his-tagged, refolded maize asparagine synthetase AsnS4 (substrate titration, asparagine by HPLC); format: biochemical
T1 construct: 588 aa
T1 sequence (B5U8J9 1-588): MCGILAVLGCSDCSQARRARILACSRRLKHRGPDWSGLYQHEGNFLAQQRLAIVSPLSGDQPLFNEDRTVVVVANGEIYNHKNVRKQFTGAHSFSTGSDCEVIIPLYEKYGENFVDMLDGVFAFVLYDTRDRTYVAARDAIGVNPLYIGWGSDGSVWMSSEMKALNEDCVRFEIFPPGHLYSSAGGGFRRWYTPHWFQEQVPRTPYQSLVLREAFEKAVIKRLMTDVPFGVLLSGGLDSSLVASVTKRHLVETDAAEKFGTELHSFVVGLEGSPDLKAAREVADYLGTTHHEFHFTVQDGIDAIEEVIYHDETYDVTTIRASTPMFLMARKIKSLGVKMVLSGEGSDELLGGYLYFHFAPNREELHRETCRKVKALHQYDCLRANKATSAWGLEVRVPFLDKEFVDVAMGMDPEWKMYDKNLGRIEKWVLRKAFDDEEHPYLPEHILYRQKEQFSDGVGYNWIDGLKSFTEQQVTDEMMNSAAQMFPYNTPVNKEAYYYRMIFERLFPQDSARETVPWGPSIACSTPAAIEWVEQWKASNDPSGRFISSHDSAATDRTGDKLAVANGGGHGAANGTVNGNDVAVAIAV
Method: The effect of expression of asparagine synthetase genes on asparagine synthetase activity was measured in transgenic events of pMON79706 and pMON92870. Frozen, ground leaf tissue was aliquoted (200-400 mg) into wells from a precooled 96 deep-well plate. Protein was extracted in Buffer A (100 mM Hepes-OH, pH 8.0, 0.1 mM EDTA, 10 mM MgCl2, 2 mM aspartate, 0.5 mM DTT, 67 mM mercaptoethanol, 20% (v/v) glycerol, 0.1 mM ATP, 1% (v/v) P9599 (Sigma Company), 25 mM KCl). A small amount of sand was added to each well. Buffer A was then added to the leaf tissue in the wells at a ratio of 4:1 (buffer:tissue). The plates were then agitated in a paint shaker for 2 min. to mix the sample and then centrifuged at 5000×g for 10 minutes. The supernatant (100-200 μL) was desalted in a 96-well macro spin plate (SNS S025L, The Nest Group Inc., Southboro, Mass.) equilibrated in buffer A. The supernatant was then either assayed immediately or frozen in liquid nitrogen and maintained at −80° C. until used. To assay asparagine synthetase activity, desalted protein extracts (10-50 μL) were added to wells containing 100 μL assay solution (100 mM Hepes, pH 8.0, 10 mM MgCl2, 2 mM aspartate, 5 mM DTT, 10 mM ATP, 1 mM amino(oxy)acetic acid (aspartate amino transferase inhibitor), 1 mM aspartic semialdehyde (asparaginase inhibitor). To start the reaction, glutamine (final concentration of 2 mM for standard assay) was added to the solution, which was then mixed. The assay mixture was then incubated for 1 to 2 hours. The reaction was then stopped by the addition of an equal volume of 20% (w/v) trichloroacetic acid. The mixture was then filtered to remove precipitate and asparagine was measured by HPLC. Sample size was increased from 0.5 μL to 2.5 μL for HPLC, excitation wavelength was reduced from 340 nm to 235 nm, and fluorimeter gain was increased from 10 to 13. […]

[2] = target: T2, Zea mays asparagine synthetase Zm AsnS2 (SEQ ID NO: 4, encoded by SEQ ID NO: 3) (Zea mays, UniProt B5U8J7); assay: Kinetics of recombinant his-tagged, refolded maize asparagine synthetase AsnS2 (substrate titration, asparagine by HPLC); format: biochemical; conditions: AsnS2 versus the other maize AsnS enzymes
T2 construct: 606 aa
T2 sequence (B5U8J7 1-606): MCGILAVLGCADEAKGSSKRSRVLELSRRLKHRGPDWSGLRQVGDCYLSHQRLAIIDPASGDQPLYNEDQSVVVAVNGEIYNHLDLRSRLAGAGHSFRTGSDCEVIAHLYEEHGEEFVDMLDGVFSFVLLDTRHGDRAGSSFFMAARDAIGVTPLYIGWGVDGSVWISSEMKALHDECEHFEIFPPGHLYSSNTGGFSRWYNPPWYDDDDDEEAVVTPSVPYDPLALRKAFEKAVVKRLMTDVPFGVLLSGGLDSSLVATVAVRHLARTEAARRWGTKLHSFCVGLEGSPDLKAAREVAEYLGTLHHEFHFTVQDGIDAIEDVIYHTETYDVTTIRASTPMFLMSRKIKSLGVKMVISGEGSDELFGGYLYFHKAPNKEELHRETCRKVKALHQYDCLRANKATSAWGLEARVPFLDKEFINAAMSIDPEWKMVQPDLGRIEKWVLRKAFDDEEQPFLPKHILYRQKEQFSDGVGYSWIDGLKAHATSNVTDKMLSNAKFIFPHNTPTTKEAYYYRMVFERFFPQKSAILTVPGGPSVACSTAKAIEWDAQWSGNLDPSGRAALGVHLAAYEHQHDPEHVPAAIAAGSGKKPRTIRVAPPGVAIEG
Method: The effect of expression of asparagine synthetase genes on asparagine synthetase activity was measured in transgenic events of pMON79706 and pMON92870. Frozen, ground leaf tissue was aliquoted (200-400 mg) into wells from a precooled 96 deep-well plate. Protein was extracted in Buffer A (100 mM Hepes-OH, pH 8.0, 0.1 mM EDTA, 10 mM MgCl2, 2 mM aspartate, 0.5 mM DTT, 67 mM mercaptoethanol, 20% (v/v) glycerol, 0.1 mM ATP, 1% (v/v) P9599 (Sigma Company), 25 mM KCl). A small amount of sand was added to each well. Buffer A was then added to the leaf tissue in the wells at a ratio of 4:1 (buffer:tissue). The plates were then agitated in a paint shaker for 2 min. to mix the sample and then centrifuged at 5000×g for 10 minutes. The supernatant (100-200 μL) was desalted in a 96-well macro spin plate (SNS S025L, The Nest Group Inc., Southboro, Mass.) equilibrated in buffer A. The supernatant was then either assayed immediately or frozen in liquid nitrogen and maintained at −80° C. until used. […] The mixture was then filtered to remove precipitate and asparagine was measured by HPLC. […]

[3] = substrate: NC(=O)CC[C@H](N)C(=O)O; assay: Kinetics of recombinant his-tagged, refolded maize asparagine synthetase AsnS1 (substrate titration, asparagine by HPLC); format: biochemical, Zea mays; conditions: other: Zm AsnS1, 100 mM Hepes, pH 8.0, 10 mM MgCl2
From the text: (§1) This example describes the cloning of the nucleotide sequence for AsnS1 (SEQ ID NO: 1), AsnS2 (SEQ ID NO: 3), AsnS3 (SEQ ID NO: 5) and AsnS4 (SEQ ID NO: 50) into E. coli expression vectors, as well as the expression, purification and kinetics of the recombinant forms of the four AsnS isoforms.
(§2) These vectors are expected to produce recombinant proteins with C-terminal histidine tags.
(§3) The E. coli expression vectors described in the previous paragraph were used to transform Rosetta DE5™ E. coli cells (Novagen). Transformed cells were transferred from solid LB media plates and grown in liquid LB media containing standard concentrations of kanomycin (50 μM) and chloramphenicol (25 μM) at 37° C. An overnight culture was used to inoculate a 25 mL culture, which was grown at 37° C. until mid log phase (OD600=0.40.6). Cells were then transferred to 20° C. for 30 min after which IPTG was added to a final concentration of 0.5 mM. The cells were then grown at 20° C. for 12 hours and cell pellets were harvested by centrifugation.
(§4) The protein was recovered from the insoluble fraction while bound to a nickel column. Buffers used for the purification of recombinant AsnS were: […]

[4] = substrate: N[C@@H](CC(=O)O)C(=O)O; assay: as above; format: biochemical, Zea mays; conditions: other: Zm AsnS1, 100 mM Hepes, pH 8.0, 10 mM MgCl2
From the text: as §1, §2, §3, §4

[5] = substrate: Nc1ncnc2c1ncn2[C@@H]1O[C@H](COP(=O)(O)OP(=O)(O)OP(=O)(O)O)[C@@H](O)[C@H]1O; assay: as above; format: biochemical, Zea mays; conditions: other: Zm AsnS1, 100 mM Hepes, pH 8.0, 10 mM MgCl2
From the text: as §1, §2, §3, §4

[6] = substrate: NC(=O)CC[C@H](N)C(=O)O; assay: Kinetics of recombinant his-tagged, refolded maize asparagine synthetase AsnS3 (substrate titration, asparagine by HPLC); format: biochemical, Zea mays; conditions: other: Zm AsnS3, 100 mM Hepes, pH 8.0, 10 mM MgCl2
From the text: as §1, §2, §3, §4

[7] = substrate: N[C@@H](CC(=O)O)C(=O)O; assay: as above; format: biochemical, Zea mays; conditions: other: Zm AsnS3, 100 mM Hepes, pH 8.0, 10 mM MgCl2
From the text: as §1, §2, §3, §4

[8] = substrate: Nc1ncnc2c1ncn2[C@@H]1O[C@H](COP(=O)(O)OP(=O)(O)OP(=O)(O)O)[C@@H](O)[C@H]1O; assay: as above; format: biochemical, Zea mays; conditions: other: Zm AsnS3, 100 mM Hepes, pH 8.0, 10 mM MgCl2
From the text: as §1, §2, §3, §4

[9] = substrate: NC(=O)CC[C@H](N)C(=O)O; assay: Kinetics of recombinant his-tagged, refolded maize asparagine synthetase AsnS2 (substrate titration, asparagine by HPLC); format: biochemical, Zea mays; conditions: other: Zm AsnS2, 100 mM Hepes, pH 8.0, 10 mM MgCl2
From the text: as §1, §2, §3, §4

[10] = substrate: N[C@@H](CC(=O)O)C(=O)O; assay: as above; format: biochemical, Zea mays; conditions: other: Zm AsnS2, 100 mM Hepes, pH 8.0, 10 mM MgCl2
From the text: as §1, §2, §3, §4

[11] = substrate: Nc1ncnc2c1ncn2[C@@H]1O[C@H](COP(=O)(O)OP(=O)(O)OP(=O)(O)O)[C@@H](O)[C@H]1O; assay: as above; format: biochemical, Zea mays; conditions: other: Zm AsnS2, 100 mM Hepes, pH 8.0, 10 mM MgCl2
From the text: as §1, §2, §3, §4

**Q.** Which Km ([1]; read-out: Km(ATP), 100 mM Hepes, pH 8.0, 10 mM MgCl2) does the source give for `Nc1ncnc2c1ncn2[C@@H]1O[C@H](COP(=O)(O)OP(=O)(O)OP(=O)(O)O)[C@@H](O)[C@H]1O` [ATP] here?
**A.** 128 µM

**Q.** For `NC(=O)CC[C@H](N)C(=O)O` [Gln, glutamine], which “Km (Gln) for AsnS2 compared with the other enzymes” value [2] is on record?
**A.** several fold lower than the other enzymes

**Q.** What about the Km ([1]; 100 mM Hepes, pH 8.0, 10 mM MgCl2, read-out: Km(Gln)) of the same molecule?
**A.** 233 µM

B1: Zea mays asparagine synthetase Zm AsnS1 (SEQ ID NO: 2, encoded by SEQ ID NO: 1) (Zea mays) (protein)
chain: MICDKCSLVRSFFVGRPRDITSLYKKAGSCRTMCGILAVLGVAEVSLAKRSRIIELSRRLRHRGPDWSGLHCHEDCYLAHQRLAIIDPTSGDQPLYNEDKTVVVTVNGEIYNHEELKAKLKTHEFQTGSDCEVIAHLYEEYGEEFVDMLDGMFSFVLLDTRDKSFIAARDAIGICPLYMGWGLDGSVWFSSEMKALSDDCERFITFPPGHLYSSKTGGLRRWYNPPWFSETVPSTPYNALFLREMFEKAVIKRLMTDVPFGVLLSGGLDSSLVASVASRHLNETKVDRQWGNKLHTFCIGLKGSPDLKAAREVADYLSTVHHEFHFTVQEGIDALEEVIYHIETYDVTTIRASTPMFLMSRKIKSLGVKMVISGEGSDEIFGGYLYFHKAPNKKEFHEETCRKIKALHLYDCLRANKATSAWGVEARVPFLDKSFISVAMDIDPEWKMIKRDLGRIEKWVIRNAFDDDERPYLPKHILYRQKEQFSDGVGYSWIDGLKDHASQHVSDSMMMNAGFVYPENTPTTKEGYYYRMIFEKFFPKPAARSTVPGGPSVACSTAKAVEWDASWSKNLDPSGRAALGVHDAAYEDTAGKTPASADPVSDKGLRPAIGESLGTPVASATAV
**Q.** How did the Km [3] turn out when B1 was run?
**A.** 543 µM

**Q.** What about the Km [4] of the same molecule?
**A.** 980 µM

**Q.** What about the Km [5] of the same molecule?
**A.** 110 µM

B2: Zea mays asparagine synthetase Zm AsnS3 (SEQ ID NO: 6, encoded by SEQ ID NO: 5) (Zea mays) (protein)
chain: MCGILAVLGCSDWSQAKRARILACSRRLKHRGPDWSGLYQHEGNFLAQQRLAVVSPLSGDQPLFNEDRTVVVVANGEIYNHKNVRKQFTGTHNFSTGSDCEVIMPLYEKYGENFVDMLDGVFAFVLYDTRDRTYVAARDAIGVNPLYIGWGSDGSVWIASEMKALNEDCVRFEIFPPGHLYSSAGGGFRRWYTPHWFQEQVPRTPYQPLVLREAFEKAVIKRLMTDVPFGVLLSGGLDSSLVASVTKRHLVETEAAEKFGTELHSFVVGLEGSPDLKAAREVADYLGTIHHEFHFTVQDGIDAIEEVIYHDETYDVTTIRASTPMFLMARKIKSLGVKMVLSGEGSDELLGGYLYFHFAPNKEEFHRETCRKVKALHQYDCLRANKATSAWGLEVRVPFLDKEFINVAMGMDPEWKMYDKNLGRIEKWVMRKAFDDDEHPYLPKHILYRQKEQFSDGVGYNWIDGLKSFTEQQVTDEMMNNAAQMFPYNTPVNKEAYYYRMIFERLFPQDSARETVPWGPSIACSTPAAIEWVEQWKASNDPSGRFISSHDSAATDHTGGKPAVANGGGHGAANGTVNGKDVAVAIAV
notes: 588 aa
**Q.** B2 was tested. Which Km [6] did it give?
**A.** 423 µM

**Q.** What about the Km [7] of the same molecule?
**A.** 1200 µM

**Q.** What about the Km [8] of the same molecule?
**A.** 97 µM

B3: Zea mays asparagine synthetase Zm AsnS2 (SEQ ID NO: 4, encoded by SEQ ID NO: 3) (Zea mays) (protein)
chain: T2 sequence (B5U8J7 1-606)
notes: 606 aa
**Q.** Which Km [9] does the source give for B3 here?
**A.** 110 µM

**Q.** And the Km [10]?
**A.** 910 µM

**Q.** And the Km [11]?
**A.** 125 µM

Reference: patent US8357833B2, “Corn plants and seed enhanced for asparagine and protein” (priority 2007, dated 2013)
